Target: AAV-DJ capsid viral protein (VP) subunit of the empty capsid (virus-like particle)
Experiment: cryo-EM structure; empty AAV-DJ capsids (VLPs) in 50 mM HEPES, 25 mM MgCl2, 25 mM NaCl, pH 7.4; I1 symmetry imposed; 1.56 Å resolution

Which stoichiometry N does the source give for “AAV-DJ capsid viral protein (VP) subunit of the empty capsid (virus-like particle)” here?
Its stoichiometry N is 60.
